Substitutions are numbered along the chain they refer to. Numbered stars: 1 amine (or outer) side, 2 acyl side, 3 side chain; on linkers, the order of the positions; unused ones are H or OH. Square brackets hold non-standard residues; d marks the D form. Side chains are listed from the residue outwards. Ends that are not written are not given here. * marks the point of attachment. C20 diacid = O=C(O)CCCCCCCCCCCCCCCCCCC(=O)*; C18 diacid = O=C(O)CCCCCCCCCCCCCCCCC(=O)*; αMePhe(2-F) = C[C@](N)(Cc1ccccc1F)C(=O)O; γGlu = O=C(O)[C@H](CCC(=O)[*:2])N[*:1]; αMeF = C[C@](N)(Cc1ccccc1)C(=O)O; AEEA = NCCOCCOCC(=O)O; Aib = CC(C)(N)C(=O)O
T1: human gastric inhibitory peptide receptor (GIPR) (human, UniProt P48546 22-466)
T1 sequence (looked up): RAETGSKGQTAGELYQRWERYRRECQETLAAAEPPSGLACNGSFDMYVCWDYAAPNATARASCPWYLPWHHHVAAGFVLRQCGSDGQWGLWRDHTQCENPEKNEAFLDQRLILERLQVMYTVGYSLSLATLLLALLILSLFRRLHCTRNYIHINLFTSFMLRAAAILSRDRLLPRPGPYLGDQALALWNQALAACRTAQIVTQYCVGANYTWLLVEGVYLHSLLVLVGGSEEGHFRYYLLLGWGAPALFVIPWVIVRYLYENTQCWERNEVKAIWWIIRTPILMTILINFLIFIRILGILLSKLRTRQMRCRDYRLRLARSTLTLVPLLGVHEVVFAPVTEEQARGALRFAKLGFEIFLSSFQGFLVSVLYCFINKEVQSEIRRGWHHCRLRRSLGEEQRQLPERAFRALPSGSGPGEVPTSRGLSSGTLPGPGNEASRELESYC

B1: Example 166 (peptide)
peptide: Y[Aib]EGT[αMePhe(2-F)]TSDHSI[αMeF]LDEK([AEEA-AEEA-γGlu-C20 diacid])AQ[Aib]TFI[dE]YLIEGG-NH2
modifications: N-terminus assumed
SMILES: CC[C@H](C)[C@H](NC(=O)[C@H](CC(C)C)NC(=O)[C@H](Cc1ccc(O)cc1)NC(=O)[C@@H](CCC(=O)O)NC(=O)[C@@H](NC(=O)[C@H](Cc1ccccc1)NC(=O)[C@@H](NC(=O)C(C)(C)NC(=O)[C@H](CCC(N)=O)NC(=O)[C@H](C)NC(=O)[C@H](CCCCNC(=O)COCCOCCNC(=O)COCCOCCNC(=O)CC[C@H](NC(=O)CCCCCCCCCCCCCCCCCCC(=O)O)C(=O)O)NC(=O)[C@H](CCC(=O)O)NC(=O)[C@H](CC(=O)O)NC(=O)[C@H](CC(C)C)NC(=O)[C@](C)(Cc1ccccc1)NC(=O)[C@@H](NC(=O)[C@H](CO)NC(=O)[C@H](Cc1c[nH]cn1)NC(=O)[C@H](CC(=O)O)NC(=O)[C@H](CO)NC(=O)[C@@H](NC(=O)[C@](C)(Cc1ccccc1F)NC(=O)[C@@H](NC(=O)CNC(=O)[C@H](CCC(=O)O)NC(=O)C(C)(C)NC(=O)[C@@H](N)Cc1ccc(O)cc1)[C@@H](C)O)[C@@H](C)O)[C@@H](C)CC)[C@@H](C)O)[C@@H](C)CC)C(=O)N[C@@H](CCC(=O)O)C(=O)NCC(=O)NCC(N)=O
B2: Example 168 (peptide)
peptide: YXEGTXTSDHSIXLDEKAQXTFIXYLIEGGPSSGAPPPS
modifications: Y-Aib-EGT-αMeF(2F)-TSDHSI-αMeF-LDEK((2-[2-(2-Amino-ethoxy)-ethoxy]-acetyl)2-(γ-Glu)-CO-(CH2)18-CO2H)AQ-Aib-TFI-(D-Glu)-YLIEGGPSSGAPPPS-NH2
B3: Example 173 (peptide)
peptide: B2 peptide with E16X
modifications: Y-Aib-EGT-αMeF(2F)-TSDHSI-αMeF-LD-Dap-K((2-[2-(2-Amino-ethoxy)-ethoxy]-acetyl)2-(γ-Glu)-CO-(CH2)18-CO2H)AQ-Aib-TFI-(D-Glu)-YLIEGGPSSGAPPPS-NH2
B4: Example 175 (peptide)
peptide: B2 peptide
modifications: Y-Aib-EGT-αMeF(2F)-TSDHSI-αMeF-LDEK((2-[2-(2-Amino-ethoxy)-ethoxy]-acetyl)2-(ϵK)-CO-(CH2)18-CO2H)AQ-Aib-TFI-(D-Glu)-YLIEGGPSSGAPPPS-NH2
B5: Example 178 (peptide)
peptide: B2 peptide with T21H
modifications: Y-Aib-EGT-αMeF(2F)-TSDHSI-αMeF-LDEK((2-[2-(2-Amino-ethoxy)-ethoxy]-acetyl)2-(γ-Glu)-CO-(CH2)14-CO2H)AQ-Aib-HFI-(D-Glu)-YLIEGGPSSGAPPPS-NH2
B6: Example 171 (peptide)
peptide: B2 peptide with E16X
modifications: Y-Aib-EGT-αMeF(2F)-TSDHSI-αMeF-LD-Orn-K((2-[2-(2-Amino-ethoxy)-ethoxy]-acetyl)2-(γ-Glu)-CO-(CH2)18-CO2H)AQ-Aib-TFI-(D-Glu)-YLIEGGPSSGAPPPS-NH2
B7: Example 176 (peptide)
peptide: B2 peptide
modifications: Y-Aib-EGT-αMeF(2F)-TSDHSI-αMeF-LDEK((2-[2-(2-Amino-ethoxy)-ethoxy]-acetyl)2-(ϵK)-CO-(CH2)16-CO2H)AQ-Aib-TFI-(D-Glu)-YLIEGGPSSGAPPPS-NH2
B8: Example 170 (peptide)
peptide: B2 peptide
modifications: Y-Aib-EGT-αMeF(2F)-TSDHSI-αMeF-LDEK((2-[2-(2-Amino-ethoxy)-ethoxy]-acetyl)2-(γ-Glu)-CO-(CH2)14-CO2H)AQ-Aib-TFI-(D-Glu)-YLIEGGPSSGAPPPS-NH2
B9: Example 169 (peptide)
peptide: B2 peptide
modifications: Y-Aib-EGT-αMeF(2F)-TSDHSI-αMeF-LDEK((2-[2-(2-Amino-ethoxy)-ethoxy]-acetyl)2-(γ-Glu)-CO-(CH2)16-CO2H)AQ-Aib-TFI-(D-Glu)-YLIEGGPSSGAPPPS-NH2
B10: Example 177 (peptide)
peptide: B2 peptide with T21H
modifications: Y-Aib-EGT-αMeF(2F)-TSDHSI-αMeF-LDEK((2-[2-(2-Amino-ethoxy)-ethoxy]-acetyl)2-(γ-Glu)-CO-(CH2)16-CO2H)AQ-Aib-HFI-(D-Glu)-YLIEGGPSSGAPPPS-NH2
B11: Example 174 (peptide)
peptide: B2 peptide
modifications: Y-Aib-EGT-αMeF(2F)-TSDHSI-αMeF-LDEK((2-[2-(2-Amino-ethoxy)-ethoxy]-acetyl)2-CO-(CH2)18-CO2H)AQ-Aib-TFI-(D-Glu)-YLIEGGPSSGAPPPS-NH2
B12: Example 172 (peptide)
peptide: B2 peptide with E16X
modifications: Y-Aib-EGT-αMeF(2F)-TSDHSI-αMeF-LD-Dab-K((2-[2-(2-Amino-ethoxy)-ethoxy]-acetyl)2-(γ-Glu)-CO-(CH2)18-CO2H)AQ-Aib-TFI-(D-Glu)-YLIEGGPSSGAPPPS-NH2
B13: Example 179 (peptide)
peptide: Y[Aib]EGT[αMePhe(2-F)]TSDHSI[αMeF]LDEK([AEEA-AEEA-γGlu-C18 diacid])AQ[Aib]HFI[dE]YLIEGGPSSG-NH2
modifications: N-terminus assumed
SMILES: CC[C@H](C)[C@H](NC(=O)[C@H](CC(C)C)NC(=O)[C@H](Cc1ccc(O)cc1)NC(=O)[C@@H](CCC(=O)O)NC(=O)[C@@H](NC(=O)[C@H](Cc1ccccc1)NC(=O)[C@H](Cc1c[nH]cn1)NC(=O)C(C)(C)NC(=O)[C@H](CCC(N)=O)NC(=O)[C@H](C)NC(=O)[C@H](CCCCNC(=O)COCCOCCNC(=O)COCCOCCNC(=O)CC[C@H](NC(=O)CCCCCCCCCCCCCCCCC(=O)O)C(=O)O)NC(=O)[C@H](CCC(=O)O)NC(=O)[C@H](CC(=O)O)NC(=O)[C@H](CC(C)C)NC(=O)[C@](C)(Cc1ccccc1)NC(=O)[C@@H](NC(=O)[C@H](CO)NC(=O)[C@H](Cc1c[nH]cn1)NC(=O)[C@H](CC(=O)O)NC(=O)[C@H](CO)NC(=O)[C@@H](NC(=O)[C@](C)(Cc1ccccc1F)NC(=O)[C@@H](NC(=O)CNC(=O)[C@H](CCC(=O)O)NC(=O)C(C)(C)NC(=O)[C@@H](N)Cc1ccc(O)cc1)[C@@H](C)O)[C@@H](C)O)[C@@H](C)CC)[C@@H](C)CC)C(=O)N[C@@H](CCC(=O)O)C(=O)NCC(=O)NCC(=O)N1CCC[C@H]1C(=O)N[C@@H](CO)C(=O)N[C@@H](CO)C(=O)NCC(N)=O
B14: Example 165 (peptide)
peptide: Y[Aib]EGT[αMePhe(2-F)]TSDHSI[αMeF]LDEK([AEEA-AEEA-γGlu-C20 diacid])AQ[Aib]TFI[dE][αMeF]LI[dE]GGPSSGAPPPS-NH2
modifications: N-terminus assumed
SMILES: CC[C@H](C)[C@H](NC(=O)[C@H](CC(C)C)NC(=O)[C@](C)(Cc1ccccc1)NC(=O)[C@@H](CCC(=O)O)NC(=O)[C@@H](NC(=O)[C@H](Cc1ccccc1)NC(=O)[C@@H](NC(=O)C(C)(C)NC(=O)[C@H](CCC(N)=O)NC(=O)[C@H](C)NC(=O)[C@H](CCCCNC(=O)COCCOCCNC(=O)COCCOCCNC(=O)CC[C@H](NC(=O)CCCCCCCCCCCCCCCCCCC(=O)O)C(=O)O)NC(=O)[C@H](CCC(=O)O)NC(=O)[C@H](CC(=O)O)NC(=O)[C@H](CC(C)C)NC(=O)[C@](C)(Cc1ccccc1)NC(=O)[C@@H](NC(=O)[C@H](CO)NC(=O)[C@H](Cc1c[nH]cn1)NC(=O)[C@H](CC(=O)O)NC(=O)[C@H](CO)NC(=O)[C@@H](NC(=O)[C@](C)(Cc1ccccc1F)NC(=O)[C@@H](NC(=O)CNC(=O)[C@H](CCC(=O)O)NC(=O)C(C)(C)NC(=O)[C@@H](N)Cc1ccc(O)cc1)[C@@H](C)O)[C@@H](C)O)[C@@H](C)CC)[C@@H](C)O)[C@@H](C)CC)C(=O)N[C@H](CCC(=O)O)C(=O)NCC(=O)NCC(=O)N1CCC[C@H]1C(=O)N[C@@H](CO)C(=O)N[C@@H](CO)C(=O)NCC(=O)N[C@@H](C)C(=O)N1CCC[C@H]1C(=O)N1CCC[C@H]1C(=O)N1CCC[C@H]1C(=O)N[C@@H](CO)C(N)=O
B15: Example 167 (peptide)
peptide: Y[Aib]EGT[αMePhe(2-F)]TSDHSI[αMeF]LDEK([AEEA-AEEA-γGlu-C20 diacid])AQ[Aib]TFI[dE]YLIEGGPSSG-NH2
modifications: N-terminus assumed
SMILES: CC[C@H](C)[C@H](NC(=O)[C@H](CC(C)C)NC(=O)[C@H](Cc1ccc(O)cc1)NC(=O)[C@@H](CCC(=O)O)NC(=O)[C@@H](NC(=O)[C@H](Cc1ccccc1)NC(=O)[C@@H](NC(=O)C(C)(C)NC(=O)[C@H](CCC(N)=O)NC(=O)[C@H](C)NC(=O)[C@H](CCCCNC(=O)COCCOCCNC(=O)COCCOCCNC(=O)CC[C@H](NC(=O)CCCCCCCCCCCCCCCCCCC(=O)O)C(=O)O)NC(=O)[C@H](CCC(=O)O)NC(=O)[C@H](CC(=O)O)NC(=O)[C@H](CC(C)C)NC(=O)[C@](C)(Cc1ccccc1)NC(=O)[C@@H](NC(=O)[C@H](CO)NC(=O)[C@H](Cc1c[nH]cn1)NC(=O)[C@H](CC(=O)O)NC(=O)[C@H](CO)NC(=O)[C@@H](NC(=O)[C@](C)(Cc1ccccc1F)NC(=O)[C@@H](NC(=O)CNC(=O)[C@H](CCC(=O)O)NC(=O)C(C)(C)NC(=O)[C@@H](N)Cc1ccc(O)cc1)[C@@H](C)O)[C@@H](C)O)[C@@H](C)CC)[C@@H](C)O)[C@@H](C)CC)C(=O)N[C@@H](CCC(=O)O)C(=O)NCC(=O)NCC(=O)N1CCC[C@H]1C(=O)N[C@@H](CO)C(=O)N[C@@H](CO)C(=O)NCC(N)=O

molecular target: T1, human gastric inhibitory peptide …; assay: cell-based or functional assay

Binder | hGIPR cAMP EC50 ratio | hGIPR cAMP Rel EC50
B1 | 0.504 | 0.355 nM
B2 | 0.313 | 0.572 nM
B3 | 0.179 | 0.586 nM
B4 | 1.19 | 0.0881 nM
B5 | 0.0341 | 3.08 nM
B6 | 0.471 | 0.223 nM
B7 | 0.201 | 0.523 nM
B8 | 0.185 | 0.569 nM
B9 | 0.122 | 0.86 nM
B10 | 0.0749 | 1.4 nM
B11 | 0.483 | 0.217 nM
B12 | 0.1 | 1.05 nM
B13 | 0.0575 | 1.83 nM
B14 | 0.172 | 1.04 nM
B15 | 0.291 | 0.617 nM

molecular target: human GLP-1 receptor (GLP-1R) (human, UniProt P43220 24-463); assay: cell-based or functional assay

Binder | hGLP1R cAMP EC50 ratio | hGLP1R cAMP Rel EC50
B1 | 0.0143 | 4.08 nM
B2 | 0.0323 | 1.8 nM
B3 | 0.0373 | 1.23 nM
B4 | 0.0412 | 1.11 nM
B5 | 0.00349 | 13.1 nM
B6 | 0.0609 | 0.75 nM
B7 | 0.0427 | 1.07 nM
B8 | 0.00438 | 10.4 nM
B9 | 0.0136 | 3.37 nM
B10 | 0.00673 | 6.79 nM
B11 | 0.0968 | 0.472 nM
B12 | 0.038 | 1.2 nM
B13 | 0.0169 | 2.7 nM
B14 | 0.01 | 5.81 nM
B15 | 0.0487 | 1.2 nM

— patent US20220048967A1 (published 2022)
